According to IntAct's records for PubMed 18626018:

B1: CREB-regulated transcription coactivator 2 (Mus musculus), Q3U182 (parent)
chain: MATSGANGPGSATASASNPRKFSEKIALQKQRQAEETAAFEEVMMDIGSTRLQAQKLRLAYTRSSHYGGSLPNVNQIGCGLAEFQSPLHSPLDSSRSTRHHGLVERVQRDARRMVSPLRRYPRHIDSSPYSPAYLSPPPESGWRRMMPWGNLPAEKGQLFRLPSALNRTSSDSALHTSVMNPNPQDTYPGPTPPSVLPSRRGGGFLDGEMDAKVPAIEENVVDDKHLLKPWDAKKLSSSSSRPRSCEVPGINIFPSPDQPANVPVLPPAMNTGGSLPDLTNLHFPPPLPTPLDPEETVYPSLSGGNSTTNLTHTMTHLGISGGLGLGPSYDVPGLHSPLSHPSLQSSLSNPNLQASLSSPQPQLQGSHSHPSLPASSLAHHALPTTSLGHPSLSAPALSSSSSSSSTSSPVLSAPPYPASTPGASPRHRRVPLSPLSLPAGPADARRSQQQLPKQFSPTMSPTLSSITQGVPLDTSKLPTDQRLPPYPYSPPSLVIPTHPPTPKSLQQLPSQACLVQPSGGQPPGRQPHYGALYPPGSSGHGQQPYHRPINDFSLGNLEQFNMESPSTSLVLDPPAFSEGPGFLGSEGSMSGPQDPHVLNHQNLTHCSRHGSGPNIILTGDSSPGFSKEIAAALAGVPGFEVSASGLELGLGLEDELRMEPLGLEGLTMLSDPCALLPDPAVEDSFRSDRLQ

Key:
[1] = variants of: B1; conditions: with 1433b_human YWHAB
[2] = variants of: B1; conditions: with mark2_human MARK2, Q7KZI7
[3] = variants of: B1; conditions: with aapk1_human PRKAA1, Q13131
[4] = variants of: B1; conditions: with mark3_human MARK3, P27448
mark3_human MARK3, P27448, sequence (P27448 whole entry, looked up): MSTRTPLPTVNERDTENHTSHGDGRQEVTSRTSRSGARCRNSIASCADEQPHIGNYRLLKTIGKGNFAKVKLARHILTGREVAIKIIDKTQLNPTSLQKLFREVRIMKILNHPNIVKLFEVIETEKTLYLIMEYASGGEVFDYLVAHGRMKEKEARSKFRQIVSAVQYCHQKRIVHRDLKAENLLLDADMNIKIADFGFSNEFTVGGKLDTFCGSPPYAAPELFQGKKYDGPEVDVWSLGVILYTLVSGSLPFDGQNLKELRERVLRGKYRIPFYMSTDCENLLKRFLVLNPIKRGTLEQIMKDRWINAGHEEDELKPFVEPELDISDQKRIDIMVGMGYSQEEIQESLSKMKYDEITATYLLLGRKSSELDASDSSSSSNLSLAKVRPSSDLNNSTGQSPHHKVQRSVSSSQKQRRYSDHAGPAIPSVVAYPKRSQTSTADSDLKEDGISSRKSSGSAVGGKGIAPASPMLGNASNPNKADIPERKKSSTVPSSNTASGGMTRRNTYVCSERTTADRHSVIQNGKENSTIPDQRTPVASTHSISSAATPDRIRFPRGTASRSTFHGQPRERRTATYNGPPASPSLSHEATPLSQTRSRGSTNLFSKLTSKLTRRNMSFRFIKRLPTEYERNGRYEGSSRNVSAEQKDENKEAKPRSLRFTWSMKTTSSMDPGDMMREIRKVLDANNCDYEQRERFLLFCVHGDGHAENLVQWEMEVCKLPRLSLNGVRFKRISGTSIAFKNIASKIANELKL

mark2_human MARK2, Q7KZI7, sequence (Q7KZI7 whole entry): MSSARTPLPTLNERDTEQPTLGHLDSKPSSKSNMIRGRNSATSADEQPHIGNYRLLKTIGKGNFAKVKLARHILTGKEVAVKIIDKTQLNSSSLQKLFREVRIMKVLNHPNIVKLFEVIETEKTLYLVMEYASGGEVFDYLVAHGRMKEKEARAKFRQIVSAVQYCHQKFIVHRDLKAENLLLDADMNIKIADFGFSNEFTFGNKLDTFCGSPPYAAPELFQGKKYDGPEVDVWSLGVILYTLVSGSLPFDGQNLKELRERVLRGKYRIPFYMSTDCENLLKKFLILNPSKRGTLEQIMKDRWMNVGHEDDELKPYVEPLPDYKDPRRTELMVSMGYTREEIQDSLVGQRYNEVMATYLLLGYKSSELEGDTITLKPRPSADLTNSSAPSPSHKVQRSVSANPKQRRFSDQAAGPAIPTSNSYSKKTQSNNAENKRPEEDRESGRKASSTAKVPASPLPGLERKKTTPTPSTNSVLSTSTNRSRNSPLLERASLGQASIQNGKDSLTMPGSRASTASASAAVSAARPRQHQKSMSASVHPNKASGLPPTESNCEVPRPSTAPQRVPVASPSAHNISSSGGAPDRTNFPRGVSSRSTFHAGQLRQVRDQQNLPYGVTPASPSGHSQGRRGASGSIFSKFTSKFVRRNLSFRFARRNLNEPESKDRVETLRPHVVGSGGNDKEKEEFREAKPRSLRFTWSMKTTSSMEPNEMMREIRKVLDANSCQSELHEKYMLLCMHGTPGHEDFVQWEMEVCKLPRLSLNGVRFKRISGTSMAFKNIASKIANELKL
aapk1_human PRKAA1, Q13131, sequence (Q13131 whole entry, looked up): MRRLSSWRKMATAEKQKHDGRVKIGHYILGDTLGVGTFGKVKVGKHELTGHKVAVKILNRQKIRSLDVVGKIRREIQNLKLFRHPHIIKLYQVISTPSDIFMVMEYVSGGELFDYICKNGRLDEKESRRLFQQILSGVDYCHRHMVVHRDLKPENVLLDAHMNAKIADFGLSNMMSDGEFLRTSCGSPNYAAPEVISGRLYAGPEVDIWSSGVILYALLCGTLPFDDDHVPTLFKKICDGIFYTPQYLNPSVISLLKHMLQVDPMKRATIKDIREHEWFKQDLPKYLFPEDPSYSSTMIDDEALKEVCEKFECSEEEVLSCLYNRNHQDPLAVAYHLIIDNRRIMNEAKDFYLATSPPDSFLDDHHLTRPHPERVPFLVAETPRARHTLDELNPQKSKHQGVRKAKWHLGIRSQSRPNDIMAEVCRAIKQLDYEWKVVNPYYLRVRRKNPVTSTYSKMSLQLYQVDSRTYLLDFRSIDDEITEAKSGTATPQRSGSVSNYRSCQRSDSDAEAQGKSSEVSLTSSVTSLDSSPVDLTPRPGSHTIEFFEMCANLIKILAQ

Row | Variant | effect of a mutation on the interaction [1] | effect of a mutation on the interaction [2] | effect of a mutation on the interaction [3] | effect of a mutation on the interaction [4]
1 | S171A;S275A | disrupting interaction |  |  | 
2 | S275A |  | disrupting interaction | disrupting interaction | disrupting interaction
3 | S171A | disrupting interaction | disrupting interaction | disrupting interaction | disrupting interaction
